Reference: the supplement of paper PMC10065799, “High-throughput profiling of sequence recognition by tyrosine kinases and SH2 domains using bacterial peptide display” (eLife, 2023)

Key:
AncSZ = assay: phosphorylation enrichment, bacterial display (enrichment ratio); higher = better substrate or ligand; peptides without Tyr show the background
EPHB1 = EPHB1 (UniProt P54762); assay: as above
EPHB2 = EPHB2 (UniProt P29323); assay: as above
FGFR1 = FGFR1 (UniProt P11362); assay: as above
FGFR3 = FGFR3 (UniProt P22607); assay: as above
Chain of FGFR3 (P22607 whole entry, looked up): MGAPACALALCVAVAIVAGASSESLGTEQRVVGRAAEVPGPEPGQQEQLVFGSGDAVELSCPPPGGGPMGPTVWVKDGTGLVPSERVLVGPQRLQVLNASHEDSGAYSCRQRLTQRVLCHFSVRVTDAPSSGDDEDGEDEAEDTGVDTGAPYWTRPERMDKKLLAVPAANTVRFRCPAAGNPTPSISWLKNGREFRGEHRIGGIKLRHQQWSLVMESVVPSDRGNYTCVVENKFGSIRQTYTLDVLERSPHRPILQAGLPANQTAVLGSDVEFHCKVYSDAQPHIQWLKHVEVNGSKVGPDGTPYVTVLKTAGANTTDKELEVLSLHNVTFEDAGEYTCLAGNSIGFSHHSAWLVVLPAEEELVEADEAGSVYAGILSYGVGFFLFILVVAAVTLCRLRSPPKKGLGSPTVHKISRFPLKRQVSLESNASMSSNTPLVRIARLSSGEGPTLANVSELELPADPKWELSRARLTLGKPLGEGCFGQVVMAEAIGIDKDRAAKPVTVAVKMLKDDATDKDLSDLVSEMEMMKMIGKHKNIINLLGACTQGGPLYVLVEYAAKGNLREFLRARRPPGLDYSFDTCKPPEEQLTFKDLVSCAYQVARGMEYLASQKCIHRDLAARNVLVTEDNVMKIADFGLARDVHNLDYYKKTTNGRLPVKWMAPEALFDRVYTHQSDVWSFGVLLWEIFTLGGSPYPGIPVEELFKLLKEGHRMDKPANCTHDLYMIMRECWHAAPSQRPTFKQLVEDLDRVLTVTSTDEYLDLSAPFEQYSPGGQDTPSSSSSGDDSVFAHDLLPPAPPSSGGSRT

Fer (mouse) = assay: as above
Fes = Fes (UniProt P07332); assay: as above
Chain of Fes (P07332 whole entry, looked up): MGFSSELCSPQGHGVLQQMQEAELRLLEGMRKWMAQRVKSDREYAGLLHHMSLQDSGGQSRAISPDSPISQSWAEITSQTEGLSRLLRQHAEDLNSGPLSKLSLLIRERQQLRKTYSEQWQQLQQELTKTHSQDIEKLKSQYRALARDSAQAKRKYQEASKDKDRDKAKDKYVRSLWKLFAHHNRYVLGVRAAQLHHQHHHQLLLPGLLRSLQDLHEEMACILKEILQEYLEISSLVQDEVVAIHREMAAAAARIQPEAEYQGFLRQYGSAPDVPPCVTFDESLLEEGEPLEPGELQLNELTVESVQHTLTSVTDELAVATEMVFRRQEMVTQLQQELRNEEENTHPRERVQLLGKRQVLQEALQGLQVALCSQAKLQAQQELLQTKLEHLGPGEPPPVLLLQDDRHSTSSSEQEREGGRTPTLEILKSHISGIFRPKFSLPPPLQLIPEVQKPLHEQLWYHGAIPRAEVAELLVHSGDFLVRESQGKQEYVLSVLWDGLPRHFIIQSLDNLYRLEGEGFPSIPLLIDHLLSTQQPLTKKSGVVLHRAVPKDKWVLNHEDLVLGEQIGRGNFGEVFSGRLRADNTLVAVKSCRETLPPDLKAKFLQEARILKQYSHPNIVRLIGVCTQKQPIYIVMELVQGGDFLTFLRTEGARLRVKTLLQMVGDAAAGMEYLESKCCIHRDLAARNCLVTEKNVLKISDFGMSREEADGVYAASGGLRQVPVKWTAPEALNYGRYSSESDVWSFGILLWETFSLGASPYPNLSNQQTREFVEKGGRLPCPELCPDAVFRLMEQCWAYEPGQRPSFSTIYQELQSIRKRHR

Fyn = Fyn (UniProt P06241); assay: as above
Chain of Fyn (P06241 whole entry, looked up): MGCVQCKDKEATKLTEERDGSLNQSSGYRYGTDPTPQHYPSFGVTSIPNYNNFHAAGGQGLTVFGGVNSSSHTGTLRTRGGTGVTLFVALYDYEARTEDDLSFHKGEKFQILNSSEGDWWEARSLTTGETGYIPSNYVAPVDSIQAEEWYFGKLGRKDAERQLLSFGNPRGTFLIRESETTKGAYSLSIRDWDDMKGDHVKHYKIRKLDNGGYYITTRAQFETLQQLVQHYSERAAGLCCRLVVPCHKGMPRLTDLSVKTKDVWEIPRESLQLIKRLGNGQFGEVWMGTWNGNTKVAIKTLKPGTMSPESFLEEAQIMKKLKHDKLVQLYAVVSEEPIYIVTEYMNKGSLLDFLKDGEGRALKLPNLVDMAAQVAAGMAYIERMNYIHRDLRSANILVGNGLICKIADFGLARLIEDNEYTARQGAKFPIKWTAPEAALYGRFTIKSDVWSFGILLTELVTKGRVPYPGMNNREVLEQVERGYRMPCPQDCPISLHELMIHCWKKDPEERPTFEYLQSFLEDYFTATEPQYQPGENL

Hck = Hck (UniProt P08631); assay: as above
Chain of Hck (P08631 whole entry, looked up): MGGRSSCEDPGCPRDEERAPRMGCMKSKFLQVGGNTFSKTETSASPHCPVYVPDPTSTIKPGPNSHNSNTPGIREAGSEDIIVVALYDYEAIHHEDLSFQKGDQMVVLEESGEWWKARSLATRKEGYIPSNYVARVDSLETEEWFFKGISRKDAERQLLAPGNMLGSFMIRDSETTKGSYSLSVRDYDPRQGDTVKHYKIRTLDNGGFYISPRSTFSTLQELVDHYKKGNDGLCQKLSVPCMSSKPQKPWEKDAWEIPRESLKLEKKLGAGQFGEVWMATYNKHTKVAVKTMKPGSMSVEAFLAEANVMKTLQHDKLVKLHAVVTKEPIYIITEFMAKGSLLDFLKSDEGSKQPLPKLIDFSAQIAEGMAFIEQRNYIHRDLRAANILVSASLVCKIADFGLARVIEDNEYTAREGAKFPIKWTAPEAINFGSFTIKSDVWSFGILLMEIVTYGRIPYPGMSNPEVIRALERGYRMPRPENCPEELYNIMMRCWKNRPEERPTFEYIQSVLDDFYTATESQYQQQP

Jak2 = Jak2 (UniProt O60674); assay: as above
MERTK = MERTK (UniProt Q12866); assay: as above
c-Abl (mouse) = assay: as above
c-Src = assay: as above
Grb2 SH2 = Grb2 SH2 (UniProt P62993); assay: SH2 binding enrichment of the phosphorylated peptide, bacterial display (enrichment ratio); higher = better substrate or ligand; peptides without Tyr show the background
Chain of Grb2 SH2 (P62993 whole entry, looked up): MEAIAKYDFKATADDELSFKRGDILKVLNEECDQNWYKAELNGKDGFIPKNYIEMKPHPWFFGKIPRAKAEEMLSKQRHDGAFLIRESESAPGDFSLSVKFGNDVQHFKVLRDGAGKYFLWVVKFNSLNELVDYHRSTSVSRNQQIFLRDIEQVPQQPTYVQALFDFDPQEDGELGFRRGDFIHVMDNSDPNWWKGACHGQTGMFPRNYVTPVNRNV

SHP2-C SH2 = assay: as above
c-Src SH2 = assay: as above
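Wherever SH2 binding enrichment of the phosphorylated peptide, bacterial display is given: peptide library displayed on the E. coli surface as eCPX fusions, selected cells deep-sequenced, score is each peptide's frequency after selection divided by its frequency in the input.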
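Wherever phosphorylation enrichment, bacterial display is given: 11-residue human phosphosite peptides and single-mutation variants displayed on the E. coli surface, counted by deep sequencing, each peptide's frequency after selection divided by its frequency in the unselected input library; frequency after pTyr selection over input frequency; kinase dosed for 20-30% of maximal phosphorylation in three min.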

Chain of EPHB1 (P54762 whole entry, looked up): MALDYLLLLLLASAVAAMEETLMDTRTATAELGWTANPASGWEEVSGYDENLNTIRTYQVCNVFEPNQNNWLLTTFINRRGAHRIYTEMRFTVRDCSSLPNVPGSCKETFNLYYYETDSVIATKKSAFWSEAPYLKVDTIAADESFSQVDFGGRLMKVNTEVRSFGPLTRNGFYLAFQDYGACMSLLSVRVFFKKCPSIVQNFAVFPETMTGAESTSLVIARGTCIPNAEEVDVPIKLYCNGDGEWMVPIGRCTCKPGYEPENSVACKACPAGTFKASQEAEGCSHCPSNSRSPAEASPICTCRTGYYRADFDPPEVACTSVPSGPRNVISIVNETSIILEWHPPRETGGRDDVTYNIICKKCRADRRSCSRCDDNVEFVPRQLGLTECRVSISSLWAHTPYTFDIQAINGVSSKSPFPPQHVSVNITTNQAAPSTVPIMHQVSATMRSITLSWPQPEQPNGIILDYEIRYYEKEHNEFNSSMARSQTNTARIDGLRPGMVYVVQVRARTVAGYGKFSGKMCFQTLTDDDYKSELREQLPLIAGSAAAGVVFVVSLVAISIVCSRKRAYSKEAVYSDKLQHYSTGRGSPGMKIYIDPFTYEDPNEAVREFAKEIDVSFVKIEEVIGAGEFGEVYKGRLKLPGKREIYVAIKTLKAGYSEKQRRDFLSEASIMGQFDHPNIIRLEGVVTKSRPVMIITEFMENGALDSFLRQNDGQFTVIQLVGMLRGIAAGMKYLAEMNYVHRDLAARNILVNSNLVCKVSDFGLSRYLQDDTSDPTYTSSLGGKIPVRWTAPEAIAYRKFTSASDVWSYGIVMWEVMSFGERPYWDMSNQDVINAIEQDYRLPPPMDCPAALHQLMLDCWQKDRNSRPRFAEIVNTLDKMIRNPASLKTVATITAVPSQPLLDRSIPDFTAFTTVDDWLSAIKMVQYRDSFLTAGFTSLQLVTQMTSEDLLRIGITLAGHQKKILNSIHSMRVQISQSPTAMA
Chain of FGFR1 (P11362 whole entry, looked up): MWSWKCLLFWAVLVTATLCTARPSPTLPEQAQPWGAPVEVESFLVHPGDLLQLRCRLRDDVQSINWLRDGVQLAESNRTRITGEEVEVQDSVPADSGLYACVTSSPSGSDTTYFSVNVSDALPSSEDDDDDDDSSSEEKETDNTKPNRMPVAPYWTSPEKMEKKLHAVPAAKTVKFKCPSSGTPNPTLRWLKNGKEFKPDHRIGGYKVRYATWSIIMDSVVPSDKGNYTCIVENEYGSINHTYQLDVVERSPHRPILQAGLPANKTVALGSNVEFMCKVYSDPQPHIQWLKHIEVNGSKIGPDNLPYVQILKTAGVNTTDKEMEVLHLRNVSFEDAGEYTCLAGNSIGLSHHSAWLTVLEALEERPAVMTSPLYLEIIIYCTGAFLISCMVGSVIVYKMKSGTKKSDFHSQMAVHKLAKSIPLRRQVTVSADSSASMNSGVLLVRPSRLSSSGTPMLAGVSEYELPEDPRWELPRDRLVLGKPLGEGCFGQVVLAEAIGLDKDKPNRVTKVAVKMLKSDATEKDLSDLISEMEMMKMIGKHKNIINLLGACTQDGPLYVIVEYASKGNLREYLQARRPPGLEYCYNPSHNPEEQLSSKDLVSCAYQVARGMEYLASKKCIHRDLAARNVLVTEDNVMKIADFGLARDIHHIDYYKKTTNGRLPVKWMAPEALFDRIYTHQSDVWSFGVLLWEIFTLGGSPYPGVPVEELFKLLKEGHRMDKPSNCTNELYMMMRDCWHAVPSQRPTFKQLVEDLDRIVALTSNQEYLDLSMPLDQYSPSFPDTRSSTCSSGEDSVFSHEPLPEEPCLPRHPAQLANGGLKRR

Sequence	phosphorylation enrichment (AncSZ)	phosphorylation enrichment (EPHB1)	phosphorylation enrichment (EPHB2)	phosphorylation enrichment (FGFR1)	phosphorylation enrichment (FGFR3)	phosphorylation enrichment (Fer (mouse))	phosphorylation enrichment (Fes)	phosphorylation enrichment (Fyn)	phosphorylation enrichment (Hck)	phosphorylation enrichment (Jak2)	phosphorylation enrichment (MERTK)	phosphorylation enrichment (c-Abl (mouse))	phosphorylation enrichment (c-Src)	SH2 binding enrichment (Grb2 SH2)	SH2 binding enrichment (SHP2-C SH2)	SH2 binding enrichment (c-Src SH2)
GSCQEYTGAPF [NAXD_Y85_G81S_YF]	1.16	0.628	0.496	0.536	0.798	0.466	1.04	0.422	0.509	0.98	0.424	0.638	0.564	0.946	0.822	0.596
AKKVFYVIETR [SHH_Y253]	1.12	0.569	0.582	0.542	0.765	0.401	1.26	0.465	0.422	1.01	0.361	0.627	0.412	1.2	1.03	0.775
IENKLYGTSDP [RET_Y1062_M1064T]	0.858	0.563	0.544	0.527	0.559	0.549	0.869	0.59	0.553	0.817	0.526	0.818	0.509	1.02	0.604	0.465
FFRKFYNKSED [RYR1_Y4864]	0.794	0.386	0.57	0.484	0.562	0.353	0.718	0.458	0.41	0.622	0.424	0.421	0.388	0.51	0.613	0.264
SIKDKYVTALC [KCNH2_Y611_Y616C]	0.64	0.387	0.371	0.376	0.81	0.467	0.695	0.393	0.362	0.653	0.346	0.51	0.386	0.918	0.801	0.555
NFATLYLKIFH [PDE6B_Y219_YF]	1.21	0.604	0.599	0.669	0.734	0.502	1.27	0.412	0.497	0.953	0.457	0.83	0.434	1.26	1.1	0.781
WLFFRYLAIGC [ATP2A2_Y836]	1.51	0.633	0.496	0.503	0.798	0.573	1.55	0.477	0.462	1.49	0.482	1.09	0.432	0.826	0.573	0.36
DPHQQYFIAMD [TBX15_Y159_YF]	0.93	0.504	0.577	1.02	1.19	0.396	1.1	0.551	0.544	1.06	0.511	0.792	0.637	0.917	0.71	0.655
GEPLSYTRFSL [TFRC_Y20]	0.833	0.438	0.455	0.452	0.545	0.554	0.935	0.443	0.52	2.21	0.567	1	0.83	0.901	0.519	0.558
ESMLRYDVFGG [STOX1_Y607_E608D_YF]	0.933	0.445	0.631	0.508	0.685	0.536	0.846	0.636	0.619	0.91	2.37	0.582	1.1	1.1	0.627	1.56
LVRPPYSYLAL [FOXI1_Y126_S129L]	0.602	0.63	0.536	1.62	1.33	1.23	0.645	0.438	0.678	2.16	2.78	0.757	0.498	1.06	3.61	3.64
DISEPYEVFRI [IRF8_Y107_K108E_YF]	2.21	0.665	0.559	0.661	0.725	12.3	1.15	1.91	1.81	1.09	0.572	1.09	4.48	1.03	0.916	0.663
DPADRYLTEQF [CDKL5_Y286_C291Y_YF]	1.11	0.514	0.747	0.591	0.645	0.513	1.35	0.527	0.558	1.11	0.6	0.733	0.594	0.889	0.618	0.571
YAANYYKLLGN [ROR2_Y646_D644N]	0.566	0.566	0.546	1.76	1.35	0.506	0.609	0.46	0.406	0.917	0.832	0.579	0.462	0.872	0.685	0.501
FLKDVYVDSKD [NDUFAF4_Y69]	1.11	0.459	0.512	0.488	0.731	0.557	0.983	0.48	0.707	0.855	0.471	0.66	0.471	0.848	0.749	0.413
NREGVYTDFAP [TGFBI_Y537_V539D]	0.843	0.578	0.624	0.645	0.608	2.51	1.13	9.31	2.95	0.823	1.71	0.868	7.49	0.976	0.927	0.661
KVMANYMYKAG [MAML2_Y513]	0.617	0.505	0.533	0.529	0.512	0.388	0.836	0.404	0.461	0.49	0.33	0.54	0.296	1.16	1.06	0.849

Sequence	phosphorylation enrichment (AncSZ)	phosphorylation enrichment (EPHB1)	phosphorylation enrichment (EPHB2)	phosphorylation enrichment (FGFR1)	phosphorylation enrichment (FGFR3)	phosphorylation enrichment (Fer (mouse))	phosphorylation enrichment (Fes)	phosphorylation enrichment (Fyn)	phosphorylation enrichment (Hck)	phosphorylation enrichment (Jak2)	phosphorylation enrichment (MERTK)	phosphorylation enrichment (c-Abl (mouse))	phosphorylation enrichment (c-Src)	SH2 binding enrichment (Grb2 SH2)	SH2 binding enrichment (SHP2-C SH2)	SH2 binding enrichment (c-Src SH2)
MSRDVYSTDYY [NTRK2_Y702]	1.59	2.16	2.65	3.94	2.72	0.535	0.842	2.77	1.73	0.788	5.06	0.558	3.88	1.2	0.735	0.715
NSRFTYKLEVK [USH2A_Y3747_YF]	1.22	0.649	0.545	0.432	0.761	0.599	1.39	0.38	0.475	1.25	0.467	0.853	0.382	0.757	0.561	0.331
IQTDGDRAPEA [UHMK1_Y197_Y197D]	1.08	0.636	0.702	0.602	0.88	0.595	1.35	0.466	0.655	0.96	0.487	0.79	0.536	0.762	1.03	0.427
GPGSGYTNIMR [PKLR_Y564_R559G]	0.553	0.48	0.398	0.35	0.47	0.362	0.496	0.391	0.444	0.533	0.393	0.827	0.412	3.4	7.01	7.2
FLAATYPTVGQ [NF1_Y2508_YF]	0.548	0.444	0.494	0.357	0.523	0.593	0.634	0.435	0.518	0.404	0.396	0.401	0.426	0.835	0.888	0.57
NHQYDYTFHWT [CSNK1A1_Y294_D297H]	2.13	3.18	3.07	5.52	3.88	9.26	0.938	0.602	0.758	0.892	3.15	0.7	1.84	1.15	0.938	2.86
TNYPLYLRSLE [MTM1_Y71_R69P]	1.18	1.01	0.727	0.671	0.987	0.555	1.36	0.603	0.654	1.28	0.551	0.668	0.499	0.96	0.862	0.433
YETVKYINNER [ABCB7_Y345_F346I]	0.858	0.73	0.623	1.22	0.832	10.5	0.943	1.22	1.96	0.803	0.903	0.619	1.1	1.48	1.24	11.8
SQSAKYDMAED [TTC21B_Y1213_I1208S]	0.9	0.461	0.635	0.634	0.56	0.509	0.894	0.556	0.582	0.858	0.441	0.661	0.566	0.839	0.545	1.22
LDAFIYDAALL [GRIN2A_Y730_V734L]	1.44	2.23	2.32	0.55	0.902	14.9	1.86	8.97	7.57	1.33	2.28	4.39	7.16	0.735	0.546	0.581
YRDALYKSMVD [PHEX_Y250_F252S]	0.757	0.564	0.805	0.458	0.608	0.421	0.856	0.495	0.525	0.717	0.4	0.592	0.449	0.804	0.666	0.457
NFATLYLKIYH [PDE6B_Y219]	0.989	0.564	0.574	0.464	0.709	0.492	1.28	0.42	0.42	1.27	0.392	0.827	0.403	0.887	0.859	0.539
SMEGLYSSAQD [CLIC5_Y111_T114A]	1.51	1.62	1.8	0.522	0.908	4.7	1.55	2.67	3.19	1.3	1.52	1.05	3.2	0.582	0.595	0.733
VIKDKYPQARF [APTX_Y209_K211Q_YF]	0.453	0.436	0.326	0.367	0.469	0.328	0.579	0.35	0.308	0.553	0.406	0.47	0.44	1.06	1.02	0.562
SIKDKYVTVLY [KCNH2_Y611_A614V]	0.836	0.519	0.506	0.68	0.733	0.512	0.903	0.598	0.455	0.696	0.437	0.594	0.403	0.99	2.27	1.06
IFKAAYFGVFD [SLC25A4_Y191_R188K_YF]	1.1	0.587	0.524	0.529	0.65	0.534	1.21	0.544	0.504	1.08	0.531	0.773	0.625	1.03	0.766	1.01
